The text below walks through data of US20250032583A1 (GUANGDONG FAPON BIOPHARMA, published 2025).

For this assay, the target named is T1, mPD1 (on CHO-mPD1 cells) (mouse (printed as mPD1), UniProt Q02242 25-288).
T1 construct: whole, on cells; Target of the antibody terminus in the FACS assay
T1 sequence (looked up): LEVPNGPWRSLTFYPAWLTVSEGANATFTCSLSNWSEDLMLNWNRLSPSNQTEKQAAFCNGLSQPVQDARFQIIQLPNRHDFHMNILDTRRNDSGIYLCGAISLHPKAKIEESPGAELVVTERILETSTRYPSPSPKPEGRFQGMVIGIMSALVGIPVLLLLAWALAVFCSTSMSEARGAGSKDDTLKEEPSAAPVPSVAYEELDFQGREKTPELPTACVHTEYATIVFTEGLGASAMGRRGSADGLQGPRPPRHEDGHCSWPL
The assay can be described thus: flow cytometry (FACS) on CHO-mPD1 cells, PE secondary antibody, 3-fold dilutions from 400 nM. The procedure: CHO-mPD1 or CHO-hIL-10R cells were centrifuged at 250 g for 5 min, a supernatant was discarded, the cell density was adjusted to 2E+06 by a PBS buffer with 3% BSA, and it was evenly divided into a 96-well V-shaped plate according to 100 μl/tube; the fusion protein molecules diluted above were added to cells, and incubated at 100 μL/well and 2-8° C. for 0.5 h; the 96-well plate was taken out, and centrifuged at 250 g for 5 min, and a supernatant was removed carefully; the PBS buffer with 3% BSA was used to prepare a PE fluorescent secondary antibody (1:500 dilution), it was added to the corresponding 96-well plate according to the volume of 100 μL/well, and the cells were resuspended, and incubated at 2-8° C. for 30 min; the 96-well plate was taken out, and centrifuged at 250 g for 5 min, a supernatant was removed carefully, the PBS buffer with 3% BSA was added at 200 μL/well, and it was centrifuged again at 250 g for 5 min, and a supernatant was removed carefully; and it was resuspended with 1×PBS according to the volume of 100 μL/well, and FACS detection was performed after the resuspension.

B1: R0989 (other)
heavy: QVQLKESGPGLVQPSQTLSLTCTVSGFSLTSYNVHWVRQPPGKGLEWMGGMRYNEDTSYNSALKSRLSISRDTSKNQVFLKMNSLQTDDTGTYYCTRDAVYGGYGGWFAYWGQGTLVTVSSASTKGPSVFPLAPSSKSTSGGTAALGCLVKDYFPEPVTVSWNSGALTSGVHTFPAVLQSSGLYSLSSVVTVPSSSLGTQTYICNVNHKPSNTKVDKRVEPKSCDKTHTCPPCPAPEAAGGPSVFLFPPKPKDTLMISRTPEVTCVVVDVSHEDPEVKFNWYVDGVEVHNAKTKPREEQYNSTYRVVSVLTVLHQDWLNGKEYKCKVSNKALPAPIEKTISKAKGSGSGSGSGQGTQSENSCTHFPGNLPNMLRDLRDAFSRVKTFFQMKDQLDNLLLKESLLEDFKGYLGCQALSEMIQFYLEEVMPQAENQDPDIKAHVNSLGENLKTLRLRLRRCHRFLPCENGGGSGGKSKAVEQVKNAFNKLQEKGIYKAMSEFDIFINYIEAYMTMKIRNGSGSGSGSGQPREPQVYTLPPSREEMTKNQVSLTCLVKGFYPSDIAVEWESNGQPENNYKTTPPVLDSDGSFFLYSKLTVDKSRWQQGNVFSCSVMHEALHNHYTQKSLSLSPGK
light: DTVLTQSPALAVSLGQRVTISCKASETVSSSMYSYIHWYQQKPGQQPKLLIYRASNLESGVPARFSGSGSGTDFTLTIDPVEADDVATYFCQQSWNPWTFGGGTKLELKRTVAAPSVFIFPPSDEQLKSGTASVVCLLNNFYPREAKVQWKVDNALQSGNSQESVTEQDSKDSTYSLSSTLTLSKADYEKHKVYACEVTHQGLSSPVTKSFNRGEC
notes: Anti-PD-1 antibody with the modified IL-10 monomer inserted between CH2 and CH3 through linker2; also called IL-10 monomer fusion protein, IL-10 monomer between CH2 and CH3 of the heavy chain (Position 3)
B1: the binding result was “binds”.
